Measurements from patent US7888291B2, “Substrates and assays for β-secretase” (Elan Pharmaceuticals, Inc., priority 2000, dated 2011).
“Also recorded” adds a separate entry of the source. Marks after values point to notes of the source that are not given here. Non-standard residues stand in square brackets, D forms with d. No end group written: not given here. Nle = CCCC[C@H](N)C(=O)O; SO3‑ = not defined here

Key:
Format in all cases: biochemical
[1] = target: T1, Hu-Asp2 (Homo sapiens, UniProt P56817); assay: Hu-Asp2 peptide substrate cleavage assay (HPLC quantitation of cleavage products); set-up: key to Activity: Those substrates that were not cleaved by the Hu-Asp2 are indicated by a “−” sign; substrates that produced activity are indicated by “+” signs in which the greater the activity, the more + signs are provided; ++: substrates that produced activity are indicated by “+” signs in which the greater the activity, the more + signs are provided; ++++: substrates that produced activity are indicated by “+” signs in which the greater the activity, the more + signs are provided; details: for Activity: 200 μM test substrate, 210 nM Hu-Asp2 enzyme, pH 4.5, 37° C., 3 hours
T1 construct: made in house; host or cells: High Five insect cells
Method: The peptides listed in Table 2 were designed, synthesized, and tested for activity as substrates for Hu-Asp2. 200 μM of each test substrate was incubated with 210 nM Hu-Asp2 enzyme at pH 4.5 at 37° C. for 3 hours. Of course it should be understood that these are merely exemplary assay conditions, and those of skill in the art will be able to vary these conditions and yet still provide appropriate Hu-Asp2 activity. For example, it is envisioned that the assays may be conducted at a pH range of from between about 4.0 to about 7.0. The amount of enzyme added to a given reaction mixture may also be varied and those of skill in the art will be able to perform assays defining the optimal enzyme concentrations necessary for a given assay, as such 150 nm; 200 nm; 250 nm; 300 nm or more or less enzyme may be added. Substrate concentration in those also may be varied such that an assay may use 100, 150 μM, 200 μM, 250 μM, 300 μM, 350 μM or more or less of any given; substrate. It may be that one substrate produces an optimum activity at one concentration whereas another substrate is needed to be present at a different concentration to produce an optimum cleavage rate. However, such optimizations of enzyme assay conditions is well within the skill of those in the art and will not require undue experimentation.
In an exemplary assay to determine the cleavage of the substrates of the present invention, Asp2 was prepared from High Five™ insect cells. Generally, the assasy are run in solution at acidic pH (4.0 to 5.0), at 25-37° C. in the presence of nM or sub-nanomolar enzyme. After a suitable period of incubation the reaction is stopped at a desired time by addition of 4% trifluoracetic acid (TFA). Substrates and products are separated using reverse phase HPLC. The disappearance of the substrates and the appearance of the products are monitored by continuous measurement of the absorbance of the effluent at […]. Furthermore, if the peptide comprises a tryptophan residue, the monitoring may additionally or alternatively involve continuous monitoring of fluorescence of tryptophan fluorescence (excitation at 280 nm, emission at […]) of the effluent.
In a typical assay, 210 nM enzyme and 200 μM substrate were incubated in 0.2 M sodium acetate at pH 4.5 in 100 μl volume at 37° C. for 1 to 3 hours. The assay was stopped by the addition of 50 μl 4% TFA to lower the pH below the active range of the enzyme. Subsequently, 100 μl of this mixture was injected into a Hewlett Packard Model 1090 HPLC equipped with a Vydac column (4.6 mm i.d.×150 mm, 5 μm) pre-equilibrated with 95% A (0.15% TFA in water), 5% B (0.15% TFA in acetonitrile). The constituents were then eluted from the column with the following linear gradients: 0-15 min: 5-50% B; 15-17 min: 50-100% B; 17-20 min: 100-5% B; 20-22 min: 5% B). The cleavage products were then quantitated using an enhanced integrator. […]

[2] = target: T1, Hu-Asp2; assay: as above; details: for activity / rate of hydrolysis by Asp2 over wild type peptide (SEQ ID NO:20): Tables 3 and 4
[3] = target: Hu-Asp (Homo sapiens, UniProt P56817); assay: Hu-Asp cleavage assay variation for substrates of SEQ ID NO:190 and 191 (Vmax, Km, pH, ionic strength, DMSO); set-up: made in house; host or cells: High Five insect cells; details: 100 mM NaOAc/HOAc, pH 4.5 (stated for SEQ ID NO:190 and 191)
Method: In the substrates SEISY-EVEFRWKK (SEQ ID NO:190) and GLTNIKTEEISEISY-EVEFRWKK (SEQ ID NO:191), the 10 N-terminal amino acids of peptide SEISY-EVEFRWKK (SEQ ID NO:190) are identical to those of peptide SEISY-EVEFR (SEQ ID NO:152). The difference between the two peptide is the presence of a tryptophan and two lysines in the peptide of SEQ ID NO:190. […] Hu-Asp activity was tested towards SEISY-EVEFRWKK (SEQ ID NO:190) and GLTNIKTEEISEISY-EVEFRWKK (SEQ ID NO:191). […] The activity difference between the two peptides was particularly dramatic in the pH range 4.0-4.6. Specifically, it was 6.3-4.8 times higher for the peptide of SEQ ID NO:191. […] Both peptides were inhibited by increasing concentrations of DMSO. […] As expected, the N-terminus elongation increases activity. […] The development of the substrates of SEQ ID NO:190 and SEQ ID NO:191 is of great value in Hu-Asp inhibition studies and in studies concerning recombinant Hu-Asp refolding from E. coli inclusion bodies.
In a variation of the above assay for substrates of SEQ ID NO:190 or its N-terminally extended version depicted in SEQ ID NO:191), the substrates are incubated with the enzyme to a final reaction solution volume of 200 μl (although reaction mixtures of 50-100 μl also were used) composed of 5-50 μM peptide substrate, 1-10 nM enzyme, 0.1. M sodium acetate buffer at pH 4 to 5. […]

[4] = Table 3, 200 nM enzyme, 200 μM substrate, 300 mM Na-acetate, 4% DMSO, pH 4.5, 37° C., 4 hr, APP-Sw = 100
[5] = Table 4, 200 nM enzyme, 200 μM substrate, pH 4.5, 37° C., 1 hr, SEQ ID NO:19 = 100
[6] = Table 5, 2 nM enzyme, 50 μM substrate, 25 mM Sodium acetate, pH 4.4, 37° C., 2 hr
[7] = Table 5, 2 nM enzyme, 50 μM substrate, 25 mM Sodium acetate, pH 4.4, 37° C., 2 hr, SEQ ID NO:141 = 100

T1 sequence (P56817 46-501): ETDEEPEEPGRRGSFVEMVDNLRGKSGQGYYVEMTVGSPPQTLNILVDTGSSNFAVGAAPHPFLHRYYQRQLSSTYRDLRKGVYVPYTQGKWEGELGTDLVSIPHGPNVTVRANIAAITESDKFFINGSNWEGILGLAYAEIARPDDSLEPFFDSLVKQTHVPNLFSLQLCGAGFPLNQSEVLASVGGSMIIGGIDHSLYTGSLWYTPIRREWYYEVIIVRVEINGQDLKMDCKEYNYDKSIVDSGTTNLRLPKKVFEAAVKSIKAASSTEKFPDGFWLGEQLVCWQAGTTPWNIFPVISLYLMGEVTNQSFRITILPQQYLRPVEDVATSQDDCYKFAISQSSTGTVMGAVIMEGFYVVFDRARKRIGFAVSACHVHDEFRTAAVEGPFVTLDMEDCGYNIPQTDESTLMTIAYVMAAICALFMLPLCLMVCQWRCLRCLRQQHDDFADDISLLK
Sequence of Hu-Asp (P56817 46-501): as above

Substance: Biotin-KVEANY-EVEGERC(oregon green)KK
- cleavage site [1]: between Tyr and Glu only
- Vmax and Km compared with a previous biotinylated fluorescent substrate derived from the Swedish Mutant peptide [2]: at least twice better; also recorded: at least double
- cleavage after 15 minutes ([2]; 200 mM sodium acetate, pH 4.5, 10 μM substrate, 50 nM enzyme, 37° C., 15 minutes): 20%
- cleavage after 30 minutes ([2]; 200 mM sodium acetate, pH 4.5, 10 μM substrate, 50 nM enzyme, 37° C., 30 minutes): 37%
- cleavage after 60 minutes ([2]; 200 mM sodium acetate, pH 4.5, 10 μM substrate, 50 nM enzyme, 37° C., 60 minutes): 57%
- cleavage after 120 minutes ([2]; 200 mM sodium acetate, pH 4.5, 10 μM substrate, 50 nM enzyme, 37° C., 120 minutes): 82%

Substance: KTISL- ↓-DVDPS (KTISLDVDPS) [Peptide 7]
- activity as substrate of Hu-Asp2 (in words) [1]: activity dropped substantially
- Relative rate of Cleavage [2, 4]: 20.5

Substance: SEVNL-DAEFR (SEVNLDAEFR) [APP-Sw, reference compound]
- Relative rate of Cleavage [2, 4]: 100
- Relative rate of Cleavage [2, 5]: 100.0

Substance: KVEANY-LVEGERKK (KVEANYLVEGERKK)
- Activity [1]: +

Substance: KTINnle-↓-EVDPS (KTIN[Nle]EVDPS) [Peptide 4]
- activity as substrate of Hu-Asp2 (in words) [1]: very well tolerated
- Relative rate of Cleavage [2, 4]: 93.6

Substance: KTINL-↓-EVEPS (KTINLEVEPS) [Peptide 2]
- activity as substrate of Hu-Asp2 (in words) [1]: activity similar to that of the Swedish mutant
- Relative rate of Cleavage [2, 4]: 92.0

Substance: SEVSY-↓-EAEFR (SEVSYEAEFR)
- activity as substrate of Hu-Asp2 (in words) [1]: activity comparable to the Swedish mutation; also recorded: activity comparable to that of the Swedish mutant
- Relative rate of Cleavage [2, 5]: 77.1

Substance: TEVDY-EVEFR (TEVDYEVEFR)
- Cleavage Activity [2, 6]: 0.37 µmol/min/mg
- Relative rate of Cleavage [2, 7]: 230

Substance: KTINnle-↓-EVEPS (KTIN[Nle]EVEPS) [Peptide 3]
- activity as substrate of Hu-Asp2 (in words) [1]: activity similar to that of the Swedish mutation
- Relative rate of Cleavage [2, 4]: 92.6

Substance: KTISL- ↓-DVEPS (KTISLDVEPS) [Peptide 6]
- activity as percentage of the Swedish mutation peptide (SEQ ID NO:19) ([2]; Table 3): 69%
- Relative rate of Cleavage [2, 4]: 69.0
- activity / rate of hydrolysis by Asp2 over wild type peptide (SEQ ID NO:20) [2]: about 35 fold

Substance: TRPGSGLTNIKTEEISEVSY-EVEFR (TRPGSGLTNIKTEEISEVSYEVEFR)
- rate of cleavage / activity over SEVSY-EVEFR (SEQ ID NO:141) [2]: 8.4 fold
- Cleavage Activity [2, 6]: 1.35 µmol/min/mg
- Relative rate of Cleavage [2, 7]: 840

Substance: SEVDY-EVEFR (SEVDYEVEFR)
- Cleavage Activity [2, 6]: 0.38 µmol/min/mg
- Relative rate of Cleavage [2, 7]: 240

Substance: KVEALY-LV(SO3-)GER (KVEALYLV[SO3‑]GER; reading uncertain; also: sulfonated residue, parent residue not given here, printed as KVEALY-LV(SO3-)GER)
- Activity [1]: −

Substance: SEVSY-↓-DAEFR (SEVSYDAEFR)
- activity compared with Swedish mutant peptide (SEQ ID NO:19) ([2]; Table 4): about five times less than that of the Swedish mutation
- Relative rate of Cleavage [2, 5]: 18.3
- activity / rate of hydrolysis by Asp2 over wild type peptide (SEQ ID NO:20) [2]: about 9 fold

Substance: SEVNY-↓-EVEFR (SEVNYEVEFR)
- activity as fraction of that of SEVSY-EVEFR (SEQ ID NO:141) ([2]; peptide activity assays): ⅕

Substance: KTINnle-↓-DVDPS (KTIN[Nle]DVDPS) [Peptide 5]
- reduction of activity compared with peptide #3 (SEQ ID NO:134) ([2]; Table 3): about 10 fold
- Relative rate of Cleavage [2, 4]: 12.2

Substance: SEVKM-DAEFR (SEVKMDAEFR) [APP-Wildtype, reference compound]
- Relative rate of Cleavage ([2]; Table 3, 200 nM enzyme, 200 μM substrate, 300 mM Na-acetate, 4% DMSO, pH 4.5, 37° C., 24 hr reaction): 2.1*
- Relative rate of Cleavage ([2]; Table 4, 200 nM enzyme, 200 μM substrate, pH 4.5, 37° C., 24 hr reaction): 2.1*

Substance: WRRVEALY-LVEGERK (WRRVEALYLVEGERK)
- Activity [1]: ++

Substance: SEIDY-EVEFR (SEIDYEVEFR)
- Cleavage Activity [2, 6]: 0.69 µmol/min/mg
- Relative rate of Cleavage [2, 7]: 430

Substance: SEISY-EVEFR (SEISYEVEFR)
- rate of cleavage / activity over SEVSY-EVEFR (SEQ ID NO:141) [2]: 5 fold
- Cleavage Activity [2, 6]: 0.80 µmol/min/mg
- Relative rate of Cleavage [2, 7]: 500

Substance: KTEEISEVSY-EVEFR (KTEEISEVSYEVEFR)
- rate of cleavage / activity over SEVSY-EVEFR (SEQ ID NO:141) [2]: 3.6 fold
- Cleavage Activity [2, 6]: 0.58 µmol/min/mg
- Relative rate of Cleavage [2, 7]: 360

Substance: TEVSY-EVEFR (TEVSYEVEFR)
- Cleavage Activity [2, 6]: 0.27 µmol/min/mg
- Relative rate of Cleavage [2, 7]: 160

Substance: KVEANY-AVEGERKK (KVEANYAVEGERKK)
- Activity [1]: ++++

Substance: TEIDY-EVEFR (TEIDYEVEFR)
- Cleavage Activity [2, 6]: 0.62 µmol/min/mg
- Relative rate of Cleavage [2, 7]: 390

Substance: KVEANY-EVEGERKK (KVEANYEVEGERKK)
- activity as substrate of Hu-Asp2 (in words) [1]: good substrate for Hu-Asp
- Activity [1]: ++++

Substance: KVEALY-AVEGERKK (KVEALYAVEGERKK)
- Activity [1]: +

Substance: GLTNIKTEEISEISYEVEFRWKK [SEQ ID NO:191, GLTNIKTEEISEISY-EVEFRWKK]
- Km [3]: 43.1 µM

Substance: KVEANL-AVEGERKK (KVEANLAVEGERKK)
- Activity [1]: +

Substance: KVEANY-DVEGERKK (KVEANYDVEGERKK)
- Activity [1]: +

Substance: KTITL-↓-EVEPS (KTITLEVEPS) [Ubiquitin (Pep 1)]
- activity as percentage of the Swedish mutation peptide (SEQ ID NO:19) ([2]; Table 3): about 13%
- Relative rate of Cleavage [2, 4]: 13.1
- activity / rate of hydrolysis by Asp2 over wild type peptide (SEQ ID NO:20) [2]: six times better than wild type peptide

Substance: VEALY-LVEGER (VEALYLVEGER)
- activity as substrate of Hu-Asp2 (in words) [1]: found to be cleaved by the Hu-Asp2

Substance: KVEANY-EVEGERCKK (KVEANYEVEGERCKK)
- activity as substrate of Hu-Asp2 (in words) [1]: good substrate for Hu-Asp2
